Laboratory results reported in the supplement of paper PMC9112550, “Optimization of the antimicrobial peptide Bac7 by deep mutational scanning” (BMC Biology, 2022).

System: Escherichia coli TOP10
Experiment: shrunken log2 fold change of peptide-encoding DNA abundance (4.5 h post-induction vs induction); higher = less antimicrobial activity (less host growth inhibition)
Conditions: time post-induction: 4.5 h; library: site-saturation at positions 5, 18, 19, 20
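Further: peptides expressed intracellularly from a pBAD plasmid library in pooled LB shake-flask culture, induced with 0.3% L-arabinose, DNA abundance read by NGS, three biological replicates, DESeq2 with apeglm shrinkage.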

Sequence | shrunken log2 fold change
RRIRTRPPRLPRPRPRPEYKPRP | 0.134
RRIRSRPPRLPRPRPRPEHYPRP | -0.132
RRIRFRPPRLPRPRPRPRHDPRP | 0.0736
RRIRRRPPRLPRPRPRPTTLPRP | 0.0363
RRIRERPPRLPRPRPRPRFDPRP | 1.26
RRIRVRPPRLPRPRPRPMWFPRP | -0.0469
RRIRCRPPRLPRPRPRPKCYPRP | -0.353
RRIRCRPPRLPRPRPRPPFIPRP | -0.154
RRIRGRPPRLPRPRPRPRHHPRP | 2.5
RRIRCRPPRLPRPRPRPEFDPRP | -0.0199
RRIRRRPPRLPRPRPRPNAEPRP | 0.0193
RRIRSRPPRLPRPRPRPRDRPRP | 0.271
RRIRQRPPRLPRPRPRPNDYPRP | -0.179
RRIRMRPPRLPRPRPRPVRQPRP | 0.332
RRIRIRPPRLPRPRPRPHECPRP | -0.164
RRIRWRPPRLPRPRPRPCYLPRP | -0.33
RRIRIRPPRLPRPRPRPISLPRP | -0.129
RRIRYRPPRLPRPRPRPRYFPRP | -0.212
RRIRSRPPRLPRPRPRPLHKPRP | 0.104
RRIRMRPPRLPRPRPRPMAQPRP | -0.0018
RRIRARPPRLPRPRPRPWTMPRP | -0.0418
RRIRVRPPRLPRPRPRPKLKPRP | 0.00388
RRIRIRPPRLPRPRPRPDFAPRP | 0.222
RRIRSRPPRLPRPRPRPEMSPRP | 0.259
RRIRIRPPRLPRPRPRPTQEPRP | 0.0113

Sequence | shrunken log2 fold change
RRIRQRPPRLPRPRPRPDKQPRP | 0.0312
RRIRDRPPRLPRPRPRPKHHPRP | -0.272
RRIRSRPPRLPRPRPRPVTPPRP | 0.0877
RRIRKRPPRLPRPRPRPATTPRP | 0.407
RRIRWRPPRLPRPRPRPSSWPRP | 0.0927
RRIRCRPPRLPRPRPRPWYKPRP | -1.01
RRIRPRPPRLPRPRPRPWSWPRP | 0.217
RRIRWRPPRLPRPRPRPICEPRP | 0.389
RRIRIRPPRLPRPRPRPWEMPRP | 0.177
RRIRWRPPRLPRPRPRPSHCPRP | -0.689
RRIRCRPPRLPRPRPRPHFEPRP | -0.152
RRIRNRPPRLPRPRPRPKRGPRP | 0.00668
RRIRTRPPRLPRPRPRPKVGPRP | 0.2
RRIRVRPPRLPRPRPRPKETPRP | 0.0161
RRIRRRPPRLPRPRPRPCKIPRP | 0.0604
RRIRARPPRLPRPRPRPYYLPRP | -0.539
RRIRRRPPRLPRPRPRPWTKPRP | 0.124
RRIRNRPPRLPRPRPRPFLIPRP | 0.117
RRIRRRPPRLPRPRPRPNAKPRP | 0.0165
RRIRWRPPRLPRPRPRPNIYPRP | -0.307
RRIRIRPPRLPRPRPRPCASPRP | 0.02
RRIRPRPPRLPRPRPRPRFCPRP | 0.225
RRIRFRPPRLPRPRPRPITCPRP | -1.15
RRIRRRPPRLPRPRPRPSTTPRP | 0.00373
RRIRDRPPRLPRPRPRPALHPRP | 0.438

Sequence | shrunken log2 fold change
RRIRSRPPRLPRPRPRPEDAPRP | 0.821
RRIRPRPPRLPRPRPRPKRVPRP | 0.0499
RRIRLRPPRLPRPRPRPNFPPRP | -0.00674
RRIRLRPPRLPRPRPRPLGNPRP | 0.102
RRIRARPPRLPRPRPRPCEPPRP | 0.39
RRIRERPPRLPRPRPRPRWSPRP | -0.078
RRIRYRPPRLPRPRPRPYEEPRP | -0.0354
RRIRGRPPRLPRPRPRPTGGPRP | 0.887
RRIRCRPPRLPRPRPRPSHSPRP | -0.392
RRIRKRPPRLPRPRPRPVERPRP | 0.204
RRIRMRPPRLPRPRPRPKQTPRP | 3.33
RRIRYRPPRLPRPRPRPYILPRP | -0.264
RRIRSRPPRLPRPRPRPRMCPRP | -0.155
RRIRPRPPRLPRPRPRPHDSPRP | -0.134
RRIRHRPPRLPRPRPRPNLFPRP | -0.0861
RRIRQRPPRLPRPRPRPGIRPRP | 0.346
RRIRMRPPRLPRPRPRPFYQPRP | -0.297
RRIRLRPPRLPRPRPRPNIQPRP | -0.689
RRIRIRPPRLPRPRPRPFMMPRP | 0.0298
RRIRTRPPRLPRPRPRPPMVPRP | 0.152
RRIRMRPPRLPRPRPRPCDEPRP | 0.877
RRIRARPPRLPRPRPRPTYKPRP | -0.23
RRIRMRPPRLPRPRPRPCPHPRP | 0.0961
RRIRVRPPRLPRPRPRPNNIPRP | -0.937
RRIRHRPPRLPRPRPRPLVMPRP | -0.0133

Sequence | shrunken log2 fold change
RRIRVRPPRLPRPRPRPLQAPRP | 0.432
RRIRHRPPRLPRPRPRPDVCPRP | -0.258
RRIRHRPPRLPRPRPRPAARPRP | 0.168
RRIRDRPPRLPRPRPRPGCRPRP | 0.398
RRIRTRPPRLPRPRPRPTGWPRP | 0.511
RRIRIRPPRLPRPRPRPIAEPRP | -0.22
RRIRVRPPRLPRPRPRPEEYPRP | -0.411
RRIRCRPPRLPRPRPRPTIHPRP | -0.883
RRIRVRPPRLPRPRPRPYRKPRP | -0.259
RRIRVRPPRLPRPRPRPSRLPRP | 0.599
RRIRYRPPRLPRPRPRPFMTPRP | -2.5
RRIRARPPRLPRPRPRPTIDPRP | 0.301
RRIRYRPPRLPRPRPRPPPWPRP | 0.358
RRIRDRPPRLPRPRPRPTLMPRP | 0.114
RRIRHRPPRLPRPRPRPMRDPRP | 0.684
RRIRIRPPRLPRPRPRPDCWPRP | 0.103
RRIRTRPPRLPRPRPRPEENPRP | -0.0317
RRIRTRPPRLPRPRPRPGYCPRP | -0.184
RRIRYRPPRLPRPRPRPTTTPRP | -0.00235
RRIRDRPPRLPRPRPRPHRDPRP | -0.0968
RRIRQRPPRLPRPRPRPAKCPRP | 0.0161
RRIRLRPPRLPRPRPRPEYDPRP | 0.0855
RRIRTRPPRLPRPRPRPNAMPRP | 0.0879
RRIRWRPPRLPRPRPRPRGWPRP | 1.13
RRIRRRPPRLPRPRPRPKDHPRP | 0.0887

Sequence | shrunken log2 fold change
RRIRCRPPRLPRPRPRPQTPPRP | 0.48
RRIRKRPPRLPRPRPRPKNPPRP | 0.0739
RRIRGRPPRLPRPRPRPQCNPRP | 0.203
RRIRMRPPRLPRPRPRPFNYPRP | -0.559
RRIRPRPPRLPRPRPRPVMHPRP | 0.15
RRIRHRPPRLPRPRPRPFLDPRP | -0.751
RRIRKRPPRLPRPRPRPLGGPRP | 0.288
RRIRMRPPRLPRPRPRPFCAPRP | 0.358
RRIRYRPPRLPRPRPRPMGAPRP | -0.207
RRIRTRPPRLPRPRPRPWPEPRP | 0.0147
RRIRCRPPRLPRPRPRPMSLPRP | -0.163
RRIRKRPPRLPRPRPRPQHKPRP | 0.196
RRIRVRPPRLPRPRPRPRNIPRP | -0.0258
RRIRGRPPRLPRPRPRPGGPPRP | 0.968
RRIRTRPPRLPRPRPRPWVFPRP | 0.0157
RRIRPRPPRLPRPRPRPFSSPRP | -0.322
RRIRRRPPRLPRPRPRPKTVPRP | 0.233
RRIRKRPPRLPRPRPRPPADPRP | 0.563
RRIRSRPPRLPRPRPRPCYRPRP | 0.0109
RRIRSRPPRLPRPRPRPNCPPRP | -0.374
RRIRMRPPRLPRPRPRPAMCPRP | 0.124
RRIRERPPRLPRPRPRPCWGPRP | 0.0218
RRIRHRPPRLPRPRPRPRGIPRP | -0.0565
RRIRWRPPRLPRPRPRPLFDPRP | 0.0264
RRIRGRPPRLPRPRPRPYHVPRP | -0.0512
